Consider 13 variants from IntAct's records for PubMed 35512704.

Sequences and labels used below:
B1: Mothers against decapentaplegic homolog 4 (Homo sapiens), Q13485 (parent)
chain: MDNMSITNTPTSNDACLSIVHSLMCHRQGGESETFAKRAIESLVKKLKEKKDELDSLITAITTNGAHPSKCVTIQRTLDGRLQVAGRKGFPHVIYARLWRWPDLHKNELKHVKYCQYAFDLKCDSVCVNPYHYERVVSPGIDLSGLTLQSNAPSSMMVKDEYVHDFEGQPSLSTEGHSIQTIQHPPSNRASTETYSTPALLAPSESNATSTANFPNIPVASTSQPASILGGSHSEGLLQIASGPQPGQQQNGFTGQPATYHHNSTTTWTGSRTAPYTPNLPHHQNGHLQHHPPMPPHPGHYWPVHNELAFQPPISNHPAPEYWCSIAYFEMDVQVGETFKVPSSCPIVTVDGYVDPSGGDRFCLGQLSNVHRTEAIERARLHIGKGVQLECKGEGDVWVRCLSDHAVFVQSYYLDREAGRAPGDAVHKIYPSAYIKVFDLRQCHRQMQQQAATAQAAAAAQAAAVAGNIPGPGSVGGIAPAISLSAAAGIGVDDLRRLCILRMSFVKGWGPDYPRQSIKETPCWIEIHLHRALQLLDEVLHTMPIADPQPLD
partner: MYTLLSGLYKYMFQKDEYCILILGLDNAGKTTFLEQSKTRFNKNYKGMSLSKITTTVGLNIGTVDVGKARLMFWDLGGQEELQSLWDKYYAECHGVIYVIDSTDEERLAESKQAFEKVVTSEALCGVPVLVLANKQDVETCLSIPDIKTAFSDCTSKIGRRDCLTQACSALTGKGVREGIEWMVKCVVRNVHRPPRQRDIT
B2: Mothers against decapentaplegic homolog 4 (Homo sapiens), Q13485 (parent)
chain: B1 chain
partner: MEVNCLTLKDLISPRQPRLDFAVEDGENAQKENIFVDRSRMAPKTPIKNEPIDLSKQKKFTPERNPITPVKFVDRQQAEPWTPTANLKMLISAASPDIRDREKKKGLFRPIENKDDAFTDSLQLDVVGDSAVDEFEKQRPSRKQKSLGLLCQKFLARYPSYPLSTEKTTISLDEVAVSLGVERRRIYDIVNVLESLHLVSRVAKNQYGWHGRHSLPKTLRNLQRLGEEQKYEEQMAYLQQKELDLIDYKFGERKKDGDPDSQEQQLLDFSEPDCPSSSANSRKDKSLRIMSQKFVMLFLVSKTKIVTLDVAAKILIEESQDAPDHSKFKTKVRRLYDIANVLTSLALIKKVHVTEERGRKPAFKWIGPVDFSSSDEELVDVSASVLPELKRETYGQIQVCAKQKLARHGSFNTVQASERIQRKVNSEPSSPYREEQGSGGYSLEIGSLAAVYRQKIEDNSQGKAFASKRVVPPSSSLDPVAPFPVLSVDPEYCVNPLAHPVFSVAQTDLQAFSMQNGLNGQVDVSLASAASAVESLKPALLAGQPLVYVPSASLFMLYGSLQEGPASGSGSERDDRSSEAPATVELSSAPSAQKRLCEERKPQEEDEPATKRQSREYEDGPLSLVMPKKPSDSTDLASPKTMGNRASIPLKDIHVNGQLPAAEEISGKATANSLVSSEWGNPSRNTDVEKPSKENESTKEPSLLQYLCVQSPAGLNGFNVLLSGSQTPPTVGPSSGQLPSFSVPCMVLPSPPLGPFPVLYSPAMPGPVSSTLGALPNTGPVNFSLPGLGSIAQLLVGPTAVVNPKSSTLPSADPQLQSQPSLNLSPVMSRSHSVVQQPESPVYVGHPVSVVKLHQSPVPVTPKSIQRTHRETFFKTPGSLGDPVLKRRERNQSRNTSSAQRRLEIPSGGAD
B3: Mothers against decapentaplegic homolog 4 (Homo sapiens), Q13485 (parent)
chain: B1 chain
partner: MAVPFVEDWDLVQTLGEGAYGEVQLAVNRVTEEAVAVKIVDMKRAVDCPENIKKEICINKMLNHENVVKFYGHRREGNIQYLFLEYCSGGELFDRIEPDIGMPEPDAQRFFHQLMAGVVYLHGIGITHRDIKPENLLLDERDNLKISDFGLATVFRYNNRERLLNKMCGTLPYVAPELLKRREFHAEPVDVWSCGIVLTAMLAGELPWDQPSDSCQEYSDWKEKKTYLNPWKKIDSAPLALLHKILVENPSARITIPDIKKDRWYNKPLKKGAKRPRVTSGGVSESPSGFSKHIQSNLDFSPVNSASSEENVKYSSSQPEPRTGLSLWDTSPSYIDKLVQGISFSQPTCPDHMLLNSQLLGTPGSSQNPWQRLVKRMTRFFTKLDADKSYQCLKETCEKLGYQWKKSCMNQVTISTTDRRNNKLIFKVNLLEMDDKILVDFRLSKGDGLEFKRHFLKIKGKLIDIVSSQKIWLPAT
B4: Mothers against decapentaplegic homolog 4 (Homo sapiens), Q13485 (parent)
chain: B1 chain
partner: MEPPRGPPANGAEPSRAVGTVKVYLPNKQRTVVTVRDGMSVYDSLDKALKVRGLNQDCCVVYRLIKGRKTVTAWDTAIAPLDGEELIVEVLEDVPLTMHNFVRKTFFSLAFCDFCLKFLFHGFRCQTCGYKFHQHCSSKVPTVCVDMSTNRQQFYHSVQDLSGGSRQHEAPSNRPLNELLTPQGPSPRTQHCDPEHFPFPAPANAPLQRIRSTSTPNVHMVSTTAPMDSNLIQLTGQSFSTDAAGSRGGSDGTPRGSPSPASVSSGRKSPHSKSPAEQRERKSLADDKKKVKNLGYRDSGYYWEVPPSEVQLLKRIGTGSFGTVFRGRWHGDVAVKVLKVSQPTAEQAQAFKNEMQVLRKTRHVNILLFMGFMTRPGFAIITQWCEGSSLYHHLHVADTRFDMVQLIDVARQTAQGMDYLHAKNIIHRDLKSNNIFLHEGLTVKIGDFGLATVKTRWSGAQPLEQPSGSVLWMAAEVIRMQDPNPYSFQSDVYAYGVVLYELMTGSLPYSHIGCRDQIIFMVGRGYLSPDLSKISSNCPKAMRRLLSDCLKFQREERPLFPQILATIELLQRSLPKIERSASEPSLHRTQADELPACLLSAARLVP

One assay covers variants of B1. Conditions: with arfrp_human ARFRP1, Q13795.
For the variant R361C, the “effect of a mutation on the interaction” value is given as “with no effect”.

A further assay covers variants of B1. Conditions: with arfrp_human ARFRP1, Q13795. The source holds these as a separate data set.
As for R361H, the “effect of a mutation on the interaction” value was “with no effect”.

Another assay covers variants of B1. Conditions: with arfrp_human ARFRP1, Q13795. The source holds these as a separate data set.
Take D351H: the “effect of a mutation on the interaction” value is recorded as “with no effect”.

The variants in a further assay derive from B1. Conditions: with arfrp_human ARFRP1, Q13795. The source holds these as a separate data set.
In the case of G386D, the “effect of a mutation on the interaction” value was “with no effect”.

The variants in a further assay derive from B2. Conditions: with e2f7_human E2F7, Q96AV8.
As to D351H, the “effect of a mutation on the interaction” value is listed as “with no effect”.

The next assay covers variants of B2. Conditions: with e2f7_human E2F7, Q96AV8. The source holds these as a separate data set.
Take G386D: the “effect of a mutation on the interaction” value was “with no effect”.

The variants in another assay derive from B3. Conditions: with chk1_human CHEK1, O14757.
On to R361H, for which the “effect of a mutation on the interaction” value is “with no effect”.

The variants in another assay derive from B3. Conditions: with chk1_human CHEK1, O14757. This is another data set of the same source.
In the case of R361C, the “effect of a mutation on the interaction” value is recorded as “with no effect”.

The next assay covers variants of B3. Conditions: with chk1_human CHEK1, O14757. The source holds these as a separate data set.
Regarding D351H, the “effect of a mutation on the interaction” value is given as “with no effect”.

In a further assay the parent is B3. Conditions: with chk1_human CHEK1, O14757. The source holds these as a separate data set.
With G386D, the “effect of a mutation on the interaction” value is given as “with no effect”.

In another assay the parent is B4. Conditions: with araf_human ARAF.
For the variant R361C, the “effect of a mutation on the interaction” value was “with no effect”.

The variants in a further assay derive from B4. Conditions: with araf_human ARAF. The source holds these as a separate data set.
Take R361H: the “effect of a mutation on the interaction” value is “with no effect”.

In the next assay the parent is B4. Conditions: with araf_human ARAF. This is another data set of the same source.
With G386D, the “effect of a mutation on the interaction” value is given as “with no effect”.

The variants in another assay derive from B4. Conditions: with araf_human ARAF. The source holds these as a separate data set.
As for G386D, the “effect of a mutation on the interaction” value was “increasing interaction strength”.
